{
  "source": "paper PMC10039935",
  "about": "“Organic electrochemical transistors as on-site signal amplifiers for electrochemical aptamer-based sensing”",
  "biological_target": "TGF-β1 (transforming growth factor beta 1) (UniProt P01137 279-390)",
  "sequence (P01137 279-390)": "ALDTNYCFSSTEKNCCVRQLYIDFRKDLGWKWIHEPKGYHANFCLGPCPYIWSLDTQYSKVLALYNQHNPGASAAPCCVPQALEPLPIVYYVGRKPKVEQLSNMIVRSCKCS",
  "experiment": "electrochemical aptamer sensor (CV/SWV, signal-off) with OECT readout; 1 mM MgCl2 in aptamer folding; aptamer on Au with MCH backfill; 1x PBS (selectivity test in bare 1x PBS); aptamer folded and MCH backfill in 1x PBS with 1 mM MgCl2; assay pH and temperature not stated",
  "conditions": "chain copies: 2; label: 5' methylene blue; 3' thiol on Au electrode; single strand, folded",
  "data": [
    {"binder": "TGF-β1 aptamer (MB-modified) (XNA, partial phosphorothioate, 5' side of some A and C, printed as * : CG*CTCGG*CTTC*ACG*AG*ATT*CGTGT*CGTTGTGT*C*CTGT*A*C*C*CG*C*CTTG*A*C*C*AGT*C*ACT*CT*AG*AGC*AT*C*CGG*A*CTG; 5' amino C6; 3' iSpC3 and thiol C3) DNA: CGCTCGGCTTCACGAGATTCGTGTCGTTGTGTCCTGTACCCGCCTTGACCAGTCACTCTAGAGCATCCGGACTG", "values": [
      {"measurement": "binding result", "result": "binds"}
    ]}
  ]
}
